Values quoted from earlier work, collected in article PMC10530560 (Cell chemical biology, 2023).

Columns and labels:
[1] = tested on: CXCL12
[2] = tested on: CCL5
[3] = tested on: CCL3
[4] = tested on: CXCL8
[5] = tested on: CCL19
[6] = tested on: CCL21
[7] = tested on: CCL27
[8] = tested on: CCL5; details: CCL5, immobilized rPSGL-1 with SLe^x modification
[9] = tested on: CXCL12; details: CXCL12, chemotaxis assays using murine T-cells from WT and PSGL-1 null mice
[10] = tested on: VISTA; details: pH-dependent; dependent on tyrosine sulfation, not on SLe^x on Thr57

Row | heparan sulfate binding [1] | heparan sulfate binding [2] | heparan sulfate binding [3] | heparan sulfate binding [4] | binding to PSGL-1 [5] | binding to PSGL-1 [6] | binding to PSGL-1 [7] | binding to PSGL-1 [8] | binding to PSGL-1 [9] | binding of VISTA [10] | Molecule
1 | found to bind | found to bind | did not bind | did not bind | – | – | – | – | – | – | heparan sulfate
2 | – | – | – | – | reported to bind PSGL-1 | reported to bind PSGL-1 | reported to bind PSGL-1 | did not bind | did not bind | novel pH-dependent ligand | PSGL-1: P-selectin glycoprotein ligand-1 as tested in previous literature studies (protein, UniProt Q14242 42-412, looked up) P-selectin glycoprotein …: QATEYEYLDYDFLPETEPPEMLRNSTDTTPLTGPGTPESTTVEPAARRSTGLDAGGAVTELTTELANMGNLSTDSAAMEIQTTQPAATEAQTTQPVPTEAQTTPLAATEAQTTRLTATEAQTTPLAATEAQTTPPAATEAQTTQPTGLEAQTTAPAAMEAQTTAPAAMEAQTTPPAAMEAQTTQTTAMEAQTTAPEATEAQTTQPTATEAQTTPLAAMEALSTEPSATEALSMEPTTKRGLFIPFSVSSVTHKGIPMAASNLSVNYPVGAPDHISVKQCLLAILILALVATIFFVCTVVLAVRLSRKGHMYPVRNYSPTEMVCISSLLPDGGEGPSATANGGLSKAKSPGLTPEPREDREGDDLTLHSFLP
